Reference: the DeepSol protein solubility set

Experiment: soluble on expression in E. coli; label from the status in PepcDB or PDB records

Soluble on expression in E. coli, not soluble:
MGSDKIHHHHHHMAKAPKMAFVCDDCGLDYPRWQGQCRCGAWNSLVEMKLSASKSSTSRSSVLGYAGAVGGGSKKLSEVESEDAEKRLTEIGELDRVLSGGLTTGSVNIISGDPGAGKTTLLSDLVARMSQSMASLYCTAEESLSQFKNRVNRLKLNYNEDNLFLLSETSVEAIIEELEAKQIKFAVIDSIQAVVTDAANGSPGSPSQVKTAAQAFTQYCKKNNVTMFIIAHVNKNNEIAGPQTLVHIVDSLLHIDTNDGQIRTLRANKNRFGDVDTVGIFRMSERGMISVDNPSEIFLSGSTTESPGSTITCIRKGNRNLLLEIQCLTTETESEFPQRVCVGLNMNRIKMLTGILRKHTKTKIFHDTFFNIVGGLKIDESETCIDLALVTALLSSLNDFVVPRTTCIMGELSLNGDVRPIDSGVPRVKEAAQHGFTEIFIPFRNYHKTMEGLGAKIIPVKTIHELLELIN
MGSDKIHHHHHHMAKCNAVAGFNALNGVQLNLFTTDELKAIHYATMEVLMDPGIQVSDPEARQIFKENGCEVNEQTNVVKIPEYLVRRALQLAPSRFVLWGRDKKYNTVQEAGGKVHWTCFGTGVKMCKYQEGKYVTVDSVEQDIADIAKLCDWAENIDYFSLPVSARDIAGQGAQDVHETFTPLTNTAKHFHHIDPVGENVEYYRDIVNAYYGGDEEEARKKPIFSMLLCPTSPLELSVNACQVIIKGARFGMPVNVLSMAMSGGSSPVYLAGTLVTHNAEVLAGITLAQLTVPGAKVWYGSSTTTFDLKKGTAPVGSPELGLISASVAKLAQFYGLPAFVAGT
MGSDKIHHHHHHMAKKTAVVDLGSNSIRMVIFEKTSRYGFYTTCEYKRKVRLGENAYNNGKILQEEAMQRAEDALAFFKQCALKHKCKKIFIVGTSALRDAPNSKNFIKRIKDNLSLNIRCIDGKSESYLGGLAALNLLSPFKDGTTLDIGGGSSELCLIKNNRIISCISLDIGTVRLKELFYDTGKMDSLEEFIKPILEQIPKEFCNQNLIAIGGSLRAISNSIMQKNSYPLKNLHDFRYMLDEEKGHILKIFNSNLDSLINFGIKKDRFDTIKEGIFIFLKIAEKIKAKQVITSGVGIREGVYLQDLLRPKITFPPNFNPSLKCLQDKFLQSKQKNKTPHFALQIFTTLKNLHKLNDNYKHTLLNAAKLCHIGEYLNFYFANEHSAHFVLGGLNYGFSHKEKALIASIIKLNGKKVNPYNLEPYKQLLPNIHTISWLNFILCLAKTLSANEDKIDFAFANNTLYIYQENKILNLPKDELKKIAKPATIALAINQKI
MGSDKIHHHHHHMAKRSIAYLDSVFDISYTFIDHHSPLNALFLHGWGSSKEIMQQAFQGCFLNYNHLYVDLPGFNQSPNDEKVLETKDYANIINLFLKSVGKKAHVVFGHSFGGKVAILCENERMVLLSSAGILEPKPLKVRCKILLAKIFKKLGLNLGFLRSKDAMGLNQAMYETFKKVISEDFSDHFKRCEKEVLLFWGKDDKATPLSSAQKMQTLLKRSVLFVLEGDHFFFLNQAKEIEKLVENYHHAKS
MGSDKIHHHHHHMAMAHGRRRVFGSVEHRKIDMSFRPLFGSGRIRTAGEQPAQPTTASWPGSSVVFDRRRWTCREAELRWTAPHHVLVLTEEGATSQTSIRSDGKMVYEGRDRSGAITFVPAGVERLGAYRDVDLTYSALWIDPRSISPASEHLKDLPVLINKSDTVISALLKSLSSEISNGHIPDSAYVDHLIALVTLRIRGFADEPVPAPRHDSLGSRVVKRVRDYVDAHLDGDISLGDLADVAGVASDSFARRFKVTTGFAPYAYVLEERIRRSEALLCETDTTLSAIALACGFSSQSHFTTTFKRLRGVTPQAYRSKVIPES
MGSDKIHHHHHHMANLYDLKKFDLNLLVIFECIYQHLSISKAAESLYITPSAVSQSLQRLRAQFNDPLFIRSGKGIAPTTTGLNLHHHLEKNLRGLEQTINIVNKSELKKNFIIYGPQLISCSNNSMLIRCLRQDSSVEIECHDILMSAENAEELLVHRKADLVITQMPVISRSVICMPLHTIRNTLICSNRHPRITDNSTYEQIMAEEFTQLISKSAGVDDIQMEIDERFMNRKISFRGSSLLTIINSIAVTDLLGIVPYELYNSYRDFLNLKEIKLEHPLPSIKLYISYNKSSLNNLVFSRFIDRLNESF
MGSDKIHHHHHHMANPLTGYNFAYLDEQTKRMIRRAILKAVAIPGYQVPFGGREMPMPYGWGTGGIQLTASVIGENDVLKVIDQGADDTTNAVSIRQFFKRVTGVATTERTEDATLIQTRHRIPETPLVEDQILIYQVPIPEPLRFIEPRETETRTMHALEEYGVMQVKLYEDIARFGHIATTYAYPVKVNGRYVMDPSPIPKFDNPKMHMMPALQLFGAGREKRIYAVPPYTPVESLDFDDHPFTVQEWDEPCAICGSRHSYLDEVVLDDSGQRMFVCSDTDYCRQQSEGQKK
MGSDKIHHHHHHMAQKNNNVIPMTFDDAFYRKMAKQKFKQREYKRAAEYFEKVLELSPDDLEIQIDYAQCLVQLGIAKKAEHLFYDNIIYNRHLEDSFYELSQLNIEVNEPNKAFLFGINYVIVSDDQDYRDELDQMFDVKYQSEEQIELEAQLFVVQILFQYLFSQGRLKDAKNYVLHQPQEVQDHRVVRNLLAMCYLYLGEYDTAKALYEALLQEDSTDIYALCHYTLLLYNTKENEQYQKYLKILNKVVPMNDDESFKLGIVLSYLKQYRASQQLLYPLYKKGKFLSIQMYNALAYNYYYLGEEDESHYYWDKLKQISKVEIGHAPWVIENSKEVFDQHILPLLQSDDSHYRLYGIFLLDQLNGKEIVMTESIWQVLENLNNYEKLYLTYLVQGLTLNKLDFIHRGLLTLYQNELFVSENDLMVAWINQGELIIAEKVDLTDVEPYIGAFIYLYFKNQPRNVTKKQITTWLGITQYKLNKMIEFLLSI
MGSDKIHHHHHHMAQSSIEWTEMTWNPTTGCTKISAGCKFCYAEIMSKRLKAMGIDKYKDGFKVNIYPDALSIPYTWKSSKVVFVNSMSDLFHEDIPLDYIKKVFQVMNENPQHVFQVLTKRAERLFEVYKELKWTHNIWMGVSVENDKVKNRIDLLRKTSAKVKFLSLEPLIGPLPKLNLKKIDWVIVGGESGHRPRPMDSDWVLDIQEQCLKSDVAFFFKQWGGRNKKANGRLLNGRTYDEMPEIMEIEKVK
MGSDKIHHHHHHMAQVDLLNVKGEKVGTLEISDFVFNIDPNYDVMWRYVDMQLSNRRAGTASTKTRGEVSGGGRKPWPQKHTGRARHGSIRSPIWRHGGVVHGPKPRDWSKKLNKKMKKLALRSALSVKYRENKLLVLDDLKLERPKTKSLKEILQNLQLSDKKTLIVLPWKEEGYMNVKLSGRNLPDVKVIIADNPNNSKNGEKAVRIDGLNVFDMLKYDYLVLTRDMVSKIEEVLGNEAGKALTA
MGSDKIHHHHHHMARKRDDAALHLPLPEERQVTAFLQAHPDFLVRHPDLLLSLSPPSRWADDDGVLDMQVFMIDRLRDEVERVRGAAEHLIHTSRSNMSIQTRTHRAVLSILGAESMAELVEAISDDLPALLDVDVATLCFEKSEEALPDLLAPGILTLPGGTVAQIMGGADRDCALTEEMPGDPALFGDGAGLVQSSAVVRLSPGGKSPDGVMALGSRHGRTFHAGQATELITFLARVVEGSVRRFVG
MGSDKIHHHHHHMARLAKIKVKTLEQRLWDTADALRGNQEPSEYKHVVLGLVFLKYISDRFEERRRAIETSLSDPNSEEYIPNEARRSEFLEDRDEYASHNVFWVPELARWGYLQDNAKLPKIGQQLDQAMDLIEKENPIIRGVLPRNYGREGLDKSRLGQLVDLIGSIGFTESDDHGSDDVLGRVYEYFLGQFAGKETGKDAGAFYTPRSVVKTLVEMLEPFHGRVYDPACGSGGMFVQSAEFVTAHGGERTDISVYGQEFTDTTWKLAKMNLALRGIEADLGDRSADSFTQDLHRDLRADFIIANPPFNVSNWWNAKLADDPRWKYGTPPEGNANFAWVQHFLHHLSPKGTAGFVLSNGSLSSKSSGEGEIRRKLVEADLVDCIVAMPDKLFFNTGIPVSLWFISKERHGNGHRARQGEVLFIDASKLGRMENRRLRVLDDDRDIAKIAGAYHAWRNHDGGYEDVPGFVVAATLEEIRQHDFVLTPGRYVGTKEAEADWEPVEDKIARLTGELYAEFERGRKLEEVVRERLGGLNAD
MGSDKIHHHHHHMARLPLKQFLADNPKKVLVLDGGQGTELENRGIKVANPVWSTIPFISESFWSDESSANRKIVKEMFNDFLNAGAEILMTTTYQTSYKSVSENTPIRTLSEYNNLLNRIVDFSRNCIGEDKYLIGCIGPWGAHICREFTGDYGAEPENIDFYQYFKPQLENFNKNDKLDLIGFETIPNIHELKAILSWDESILSRPFYIGLSVHEHGVLRDGTTMEEIAQVIKDLGDKINPNFSFLGINCVSFNQSPDILESLHQALPNMALLAYPNSGEVYDTEKKIWLPNSDKLNSWDTVVKQYISSGARIIGGCCRTSPKDIQEISAAVKKYT
MGSDKIHHHHHHMARVKEEADRISEQANSHIENIRRQIEQEKNDWAAEKQKLIEEAKAEGFEQGVALGKAEAMKQYAELIGQANTITEMSRKAVEDKLEDANEEIVELAVALAKKVWQQKSDDKEAFLLLVQQVINEVKEYDDISIYVDPYYYETIFQQKDEIQQLLYKECRLGIYADEKAQKGTCYIETPFGRVDASVDTQLMQLKDKLLTALEAGAAE
MGSDKIHHHHHHMASPEYEEYPSADGVMDDATLKDAEIRDWNWAVLPKGSVSTRFAAPSGSLAMVAMGKPQNPRVVLVPGATGSKEDFAVMMPELAEAGFYVLSYDLAGQYESAGAGPENLVPPRRHYDYELFVNDFVAVLESGGVPAHVVGYSFAAIVAQIAYSKRPELFRSFTLLSCPPLTGQCFRGISRFGRFTGLANGRVGAALMIWGIRRNVNKVSPNRLRFVRNRFRFTRRQSVRDIYGLMKNVPDLREHLAAATVPKFVAVGEHDLWPLHLHRQFAQSIGARISVYRGGHSPSETSPHQFGRDLLAMYAEGG
MGSDKIHHHHHHMATLTTNTPIATGSTFSAASLQFLNKLAQNNSRDWFKAHQAEYEETVRTPALQFIEQMQPSILALSPRLTAVPKKVGGSLMRPQRDSRFSKDKTPYKTNIGIQFRHFQGKDVHAPGLYLHIAEDGCFIAAGIWHPESKALNAIRTCIDENPNGYKKALQTLQNHGFTMDGDSLTRPPKGFDKNHPMLTELKRKDFIAVKNIAFEELCRPDAACFCAEQFAHCTQLMAYLCFALDLDF
MGSDKIHHHHHHMATTTIYEDLSAAYDLENMQALMATKDLLGAMLRIHFILEAFLDIWCNKITNCEDFFDLKRFTSFDTKLEISKKLGLPSELAVVFKLFNKIRNKFAHRPNYVICSNDLDNIHQAINQINTHDNHSKFTMIVFNEREIRWDTPDIPIIDSLLLNYFTLSQKVNDVFANEFSKRNISFTIQGQQA
MGSDKIHHHHHHMAVIYYDKDADLNLIKDKKIAIIGYGSQGHAHALNLKDSGLNVVVGLREGSKSWKKAEEQGLTVKTIEEAAKEADIIMILIPDEHQPEIYKKYIEKHLTEGKMLMFAHGFNIHYHQIIPPKNVDVTMIAPKSPGHIVRREYVEGRGVPALVAVYQDYTGKAKDIALAYAKGIGVTRAGVIETTFKEETETDLFGEQAVLCGGVTALIKAGFETLVDAGYQPEIAYFECLNELKLIVDLIYEGGLSFMRYSVSNTAEYGDYISQEKIVTKEVRENMKQMLKDIQTGKFAKDWILENQAGRPYFYTMRKKESEHLIEKVGKELRKMMPWLKERNVDEE
MGSDKIHHHHHHMAVRKAMKYSLGPVLWYWPKETLEEFYQQAATSSADVIYLGEAVCSKRRATKVGDWLEMAKSLAGSGKQIVLSTLALVQASSELGELKRYVENGEFLIEASDLGVVNMCAERKLPFVAGHALNCYNAVTLKILLKQGMMRWCMPVELSRDWLVNLLNQCDELGIRNQFEVEVLSYGHLPLAYSARCFTARSEDRPKDECETCCIKYPNGRNVLSQENQQVFVLNGIQTMSGYVYNLGNELASMQGLVDVVRLSPQGTDTFAMLDAFRANENGAAPLPLTANSDCNGYWRRLAGLELQA
